Results from publication PMC6009577.

Molecular target: G4-P351A fragment of DGCR8 (proline at 351 to alanine) (human) (UniProt Q8WYQ5)
Experiment: SEC

stoichiometry N: 2
Substance: G4-P351A fragment of DGCR8 (proline at 351 to alanine) (from UniProt Q8WYQ5 1-773) (domain or fragment)
